The values below come from paper PMC12404492, “The crystal structure of Thermus thermophilus UMP kinase complexed with a phosphoryl group acceptor and donor” (PLOS One, 2025).

Substrate in the data set: O=c1ccn([C@@H]2O[C@H](COP(=O)(O)O)[C@@H](O)[C@H]2O)c(=O)[nH]1
Briefly: purified protein. The class given is biochemical, Thermus thermophilus. To be noted: without GTP, 1 mM ATP, 5 mM MgCl2, 100 mM KCl, 50 mM Tris-HCl pH 7.5, 25°C.

As usually defined, the Km is the substrate concentration at which the rate is half of its maximum. Broadly, the kcat is the number of substrate molecules converted per active site and unit of time at saturation.

B1: ttUMPK (UMP kinase of Thermus thermophilus HB8) (Thermus thermophilus HB8) (protein)
chain: MKYKRVLLKLSGEFLTRNGFGIEPEATQALAREIKAAYDTGVQLAIVIGAGNLWRGARQGVGMDRATADYIGMLATIMNALALQDALESLGVPTRVQTALTITQVAEPYIRRRALRHLEKERIVIFGGGTGNPFFSTDTAAALRALEVGAEVVLMAKNKVDGVYSDDPRKNPEAVRFDELTYLEVLNRGLQVMDTTAITLCMEAGLPIVVFDIFKPGALVGIIQGEKVGTLIH
notes: full-length gene in pET-11a (NdeI/BamHI), no tag mentioned; expressed in E. coli BL21(DE3), heat-treated; homohexamer by size exclusion
With B1, the Km is 46 µM and the kcat was found to be 13 s⁻¹.
